Reference: patent US20160115201, “PEPTIDES BINDING TO PARALLEL-STRANDED G-QUADRUPLEXES” (NANYANG TECHNOLOGICAL UNIVERSITY, published 2016)

What was measured:
[1] = target: T1, Rhau55 (N-terminal fragment of RHAU/DHX36) (UniProt Q9H2U1 SEQ:3-55); test: NMR imino protons, mixture with T95_2T; only T95_2T peaks affected; details: tags: expressed in E. coli; non-parallel G4 form 1
T1 sequence: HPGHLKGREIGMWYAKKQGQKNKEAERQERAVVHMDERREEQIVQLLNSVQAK

[2] = target: T1, Rhau55 (N-terminal fragment of …); test: EMSA; RNA G4; 70 mM KCl, 20 mM phosphate pH 6.8; details: tags: expressed in E. coli; parallel RNA G4
Experimental: (§1) The ratio between Rhau55 and Nucleic acids is indicated on top of each lane. DNA concentrations were fixed at 100 μM, in 70 mM KCL and 20 mM phosphate buffer (pH=6.8).

[3] = target: T1, Rhau55 (N-terminal fragment of …); test: EMSA; 70 mM KCl, 20 mM phosphate pH 6.8; details: tags: expressed in E. coli
Experimental: as §1

[4] = target: T1, Rhau55 (N-terminal fragment of …); test: EMSA; 70 mM KCl, 20 mM phosphate pH 6.8, room temperature; details: tags: expressed in E. coli; parallel (propeller) G4

Binder	binding result [2]	binding result ([3]; parallel G4)	further results
TTGGGTTAGGGTTAGGGTTAGGGA (structured_DNA) [HT1]			binding result [1]: no binding
GGGUUAGGGU (ssRNA) [10-nt TER]	binds		
AAGGGTGGGTGTAAGTGTGGGTGGGT (structured_DNA) [CEB25]		binds	
GGGUUGCGGAGGGUGGGC (ssRNA) [TERC18]	binds		
AGGGGGGAGGGAGGGTGG (structured_DNA) [CEB1]		binds	
GGGGTGGGAGGAGGGT (structured_DNA) [93del]			binding result ([3]; interlocked dimeric parallel G4): binds
TGAGGGTGGTGAGGGTGGGGA (structured_DNA) [Pu24T]		binds	
TTGGGTGGGTGGGTGGGT (structured_DNA) [T95_2T]			Kd [4]: 989 nM
UAGGGUUAGGGU (ssRNA) [12-nt TER]	binds		
